According to PMC6382169, “Molecular features of steroid-binding antidins and their use for assaying serum progesterone” (PLoS ONE, 2019):
Where two headings read alike, the source gives them in different places.

Key:
[1] = biological target: Avd; set-up: method as in PMID 17052607; conditions: read-out: Kd of Avd-HABA complex; cited from earlier work
[2] = biological target: the molecule itself; experiment: SEC; Superdex200 Increase 5/150GL, 50 mM sodium phosphate, 650 mM NaCl, pH 7, 0.1 ml/min, 20°C; molecular weight from a standard curve of elution volumes of markers
[3] = biological target: the molecule itself; experiment: crystal structure; co-crystallised with progesterone, sitting drop vapour diffusion, 21°C; 2.80 Å; two monomers in the asymmetric unit, tetrameric biological unit
[4] = set-up: method as in PMID 26550684; conditions: fluorometry-based assay, non-conjugated ligand, earlier study; read-out: Kd for progesterone; cited from earlier work
[5] = Fluorometric assay: quenching of intrinsic protein fluorescence by unconjugated ligand; assay type: binding; conditions: 100 nM protein, pH 7, 25°C, read-out: Kd for progesterone
Description: The binding affinity of the unconjugated small molecules to antidins was determined utilizing the intrinsic fluorescence originating from the aromatic amino acid residues (mainly tryptophan and tyrosine) of Avd and the fluorescence quenching caused by ligand binding. In brief, 100 nM protein samples in 50 mM NaH2PO4/Na2HPO4, 650 mM NaCl, pH 7 were excited at 280 nm, and emission was collected at 350 nm using QuantaMaster Spectrofluorometer (Photon Technology International, Inc.) with 2 nm slits. The assay was performed in a quartz cuvette with stirring at 25°C. The ligand was added to the protein sample in small aliquots (6–50 000 nM) and the fluorescence intensity was monitored after a short incubation. The dissociation constant (Kd) was determined from the resulting quenching curve using GraphPad Prism (GraphPad Software, Inc.). The data were fitted to a quadratic equation [72] for tight binding interactions, which takes ligand depletion and nonspecific binding into account (described in detail in [38]) (Fig 6).

[6] = Differential scanning calorimetry, no ligand; assay type: physicochemical; conditions: DSC, absence of ligand, 6.4 μM protein, pH 7
Description: (§1) The thermal stability of the antidin sbAvd-7 in the presence and absence of ligands was analyzed using an automated VP-Capillary DSC System (Malvern, Microcal Inc.) essentially as described in [73]. Protein samples in the sodium phosphate buffer (50 mM, pH 7) containing 650 mM NaCl were degassed prior to the measurement. The protein concentration in the cell was 6.4 μM, and the molar concentration of the ligands (D-biotin (Biochemica, Fluka) and progesterone (Steraloids Inc., USA)) were three times higher (Fig 6).

[7] = Differential scanning calorimetry with progesterone; assay type: binding; conditions: DSC, ligand three times the protein concentration
Description: as §1

[8] = Differential scanning calorimetry with biotin; assay type: binding; conditions: DSC, ligand three times the protein concentration
Description: as §1

Question: For O=C(O)c1ccccc1N=Nc1ccc(O)cc1 [HABA, 2-(4’-hydroxybenzene)azobenzoic acid], which Kd [1] is on record?
Answer: ~6000 nM

B1: sbAvd-7 antidin (engineered chicken avidin) (designed binder)
chain: ARKCSLTGKWTNRMNHNMTIGAVNSRGEFTGTYIASLNATSNEIKESPLHGTQNTINKRTQPTFGFTVNWKFSESTAVFTGQCFIDRNGKEVLKTMWLLRSSVNDIGDDWKATRVGINIFTRLRTQKE
notes: selected from the phage display library AvLib-4 (template sbAvd-1); Subcloned with the OmpA signal peptide and a C-terminal 6xHis-tag into pET101/D; source: E. coli BL21-AI or OverExpress C43(DE3), purified (Ni-NTA)
Question: For B1, which “stoichiometry N” value [2] is on record?
Answer: 4

B2: sbAvd-2 (I117Y) antidin (engineered chicken avidin) (designed binder)
chain: ARKCSLTGKWTNRMNHNMTIGAVNSRGEFTGTYIATVNATSNEIKESPLHGTQNTINKRTQPTFGFTVNWKFSESTTVFTGQCFIDRNGKEVLKTMWLLRSSVNDIGDDWKATRVGYNIFTRLRTQKE
notes: position 37 stays V; Crystallised with progesterone; also called sbAvd-2 (I117Y) mutant
Question: For B2, which “stoichiometry N” value [3] is on record?
Answer: 4

B3: sbAvd-6: antidin with RMNH at 13-16 and VSSN at positions 35-38; from AvLib-3 (protein, UniProt P02701 25-152, looked up, variant D13R L14M G15N S16H T35V A36S V37S T38N)
Avidin: ARKCSLTGKWTNRMNHNMTIGAVNSRGEFTGTYIVSSNATSNEIKESPLHGTQNTINKRTQPTFGFTVNWKFSESTTVFTGQCFIDRNGKEVLKTMWLLRSSVNDIGDDWKATRVGINIFTRLRTQKE
Question: Which Kd [4] does the source give for B3 here?
Answer: 117 nM

B4: sbAvd-9: antidin with RMNH at 13-16, YYLP at 35-38 and T77A; from AvLib-4 (protein, UniProt P02701 25-152, looked up, variant D13R L14M G15N S16H T35Y A36Y V37L T38P T77A)
Avidin: ARKCSLTGKWTNRMNHNMTIGAVNSRGEFTGTYIYYLPATSNEIKESPLHGTQNTINKRTQPTFGFTVNWKFSESTAVFTGQCFIDRNGKEVLKTMWLLRSSVNDIGDDWKATRVGINIFTRLRTQKE
Question: Which Kd [5] does the source give for B4 here?
Answer: 13 nM

B5: sbAvd-5: antidin with RMNH at 13-16 and VPHP at positions 35-38; from AvLib-3 (protein, UniProt P02701 25-152, looked up, variant D13R L14M G15N S16H T35V A36P V37H T38P)
Avidin: ARKCSLTGKWTNRMNHNMTIGAVNSRGEFTGTYIVPHPATSNEIKESPLHGTQNTINKRTQPTFGFTVNWKFSESTTVFTGQCFIDRNGKEVLKTMWLLRSSVNDIGDDWKATRVGINIFTRLRTQKE
Question: For B5, which Kd [4] is on record?
Answer: 108 nM

B6: sbAvd-2 (I117Y): sbAvd-2 with stabilizing mutation I117Y; co-crystallized with progesterone, PDB:5LUR (protein)
chain: ARKCSLTGKWTNRMNHNMTIGAVNSRGEFTGTYIATVNATSNEIKESPLHGTQNTINKRTQPTFGFTVNWKFSESTTVFTGQCFIDRNGKEVLKTMWLLRSSVNDIGDDWKATRVGYNIFTRLRTQKE
Question: For B6, which Kd [4] is on record?
Answer: 180 nM

B7: sbAvd-2: antidin with RMNH at 13-16 and ATVN at positions 35-38; from AvLib-3 (protein, UniProt P02701 25-152, looked up, variant D13R L14M G15N S16H T35A A36T T38N)
Avidin: ARKCSLTGKWTNRMNHNMTIGAVNSRGEFTGTYIATVNATSNEIKESPLHGTQNTINKRTQPTFGFTVNWKFSESTTVFTGQCFIDRNGKEVLKTMWLLRSSVNDIGDDWKATRVGINIFTRLRTQKE
Question: Which Kd [4] does the source give for B7 here?
Answer: 111 nM

B8: sbAvd-7: antidin with RMNH at 13-16, ASLN at 35-38 and T77A; from AvLib-4, progesterone panning (protein)
chain: ARKCSLTGKWTNRMNHNMTIGAVNSRGEFTGTYIASLNATSNEIKESPLHGTQNTINKRTQPTFGFTVNWKFSESTAVFTGQCFIDRNGKEVLKTMWLLRSSVNDIGDDWKATRVGINIFTRLRTQKE
modifications: left off: 6xHis, C-terminal, state not stated
notes: antidin with RMNH at 13-16, ASLN at 35-38 and T77A; from AvLib-4, progesterone panning
Question: With B8 as the molecule, how does the Tm [6] read?
Answer: 85.84 °C

Question: What about the ΔTm with progesterone [7] of the same molecule?
Answer: 10.23 °C

Question: And the ΔTm with biotin [8]?
Answer: 0.27 °C

B9: sbAvd-8: antidin with RMNH at 13-16, Y33F, A36Y, V37S, T38Y and T77A; from AvLib-4 (protein, UniProt P02701 25-152, looked up, variant D13R L14M G15N S16H Y33F A36Y V37S T38Y T77A)
Avidin: ARKCSLTGKWTNRMNHNMTIGAVNSRGEFTGTFITYSYATSNEIKESPLHGTQNTINKRTQPTFGFTVNWKFSESTAVFTGQCFIDRNGKEVLKTMWLLRSSVNDIGDDWKATRVGINIFTRLRTQKE
Question: With B9 as the molecule, how does the Kd [5] read?
Answer: 11 nM

B10: sbAvd-4: antidin with RMNH at 13-16 and PYLS at positions 35-38; from AvLib-3 (protein, UniProt P02701 25-152, looked up, variant D13R L14M G15N S16H T35P A36Y V37L T38S)
Avidin: ARKCSLTGKWTNRMNHNMTIGAVNSRGEFTGTYIPYLSATSNEIKESPLHGTQNTINKRTQPTFGFTVNWKFSESTTVFTGQCFIDRNGKEVLKTMWLLRSSVNDIGDDWKATRVGINIFTRLRTQKE
Question: For B10, which Kd [4] is on record?
Answer: 135 nM

B11: hbAvd-4: antidin S16A, Y33F, T40P, F72A, S73Y, S75Y, N118A; from AvLib-5, hydrocortisone panning (protein, UniProt P02701 25-152, looked up, variant S16A Y33F T40P F72A S73Y S75Y N118A)
Avidin: ARKCSLTGKWTNDLGANMTIGAVNSRGEFTGTFITAVTAPSNEIKESPLHGTQNTINKRTQPTFGFTVNWKAYEYTTVFTGQCFIDRNGKEVLKTMWLLRSSVNDIGDDWKATRVGIAIFTRLRTQKE
Question: With B11 as the molecule, how does the Kd [5] read?
Answer: 39 nM
